Fewer inactive variants are shown than the library holds.
B1: TPR 5TU (parent)
chain: GGAUCUUCUCGAUCUAACAAAAAAGACAAAUCUGCCACAAAGCUUGAGAGCAUCUUCGGAUGCAGAGGCGGCAGCCUUCGGUGGCGCGAUAGCGCCAACGUUCUCAACUAUGACACGCAAAACGCGUGCUCCGUUGAAUGGAGUUUAUCAUG

Variants of: B1
Assay: polymerase ribozyme fitness, log enrichment relative to wild type (log ratio); higher = more active; in vitro selection for triplet polymerase activity
Procedure, shortened: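 Fitness measures genotype enrichment against wild-type enrichment on a logarithmic scale, with inverse-variance-weighted averaging of replicates. The logarithm is base 2, and genotypes were kept only with ≥10 input reads and ≥1 read per output in Illumina sequencing. The sequenced libraries came from one triplicate in vitro selection round, including frozen incubation at −7 °C, of PCR-built, transcribed mutant libraries of each subunit of a heterodimeric triplet polymerase ribozyme.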
With A20G G25C G58C A106U the “polymerase ribozyme fitness (log ratio)” value was -3.93. In the case of A20U A29G A52G A89U C96A, the “polymerase ribozyme fitness (log ratio)” value is reported as at most -4.2. With A20U G58C C85U A98U C129U U134C the “polymerase ribozyme fitness (log ratio)” value was -1.85. For A21U G80A, the “polymerase ribozyme fitness (log ratio)” value was -0.249. For A20G C27G A29U A97G A120G U146G, the “polymerase ribozyme fitness (log ratio)” value was -4.06. For A21C C38U G46C U53G G88U A122U G126A U135C C149G, the “polymerase ribozyme fitness (log ratio)” value was at most -4.2. In the case of A21C A22U A89U G92C G94U G141A, the “polymerase ribozyme fitness (log ratio)” value is reported as at most -4.2. In the case of A21U G58C A73G C85G, the “polymerase ribozyme fitness (log ratio)” value is reported as -1.7. In the case of A20C A28U A49C U61A G92A A113G C149G, the “polymerase ribozyme fitness (log ratio)” value is reported as at most -4.2. In the case of A20U C96G, the “polymerase ribozyme fitness (log ratio)” value is reported as -0.585. With A21U C38A C57U U102G A119U the “polymerase ribozyme fitness (log ratio)” value was at most -4.2. In the case of A20U G50A C85U, the “polymerase ribozyme fitness (log ratio)” value is reported as -3.83. For A19U U53C C87G, the “polymerase ribozyme fitness (log ratio)” value was at most -4.2. In the case of A20U A137C, the “polymerase ribozyme fitness (log ratio)” value is reported as -3.99. For A21C U61A A89U U90G G100U G136A A138C U144G, the “polymerase ribozyme fitness (log ratio)” value was at most -4.2. For A21G C38U A47C U90A C96A A137U, the “polymerase ribozyme fitness (log ratio)” value was at most -4.2. For A21U A23U A24C C54U G81A C85U A147C, the “polymerase ribozyme fitness (log ratio)” value was at most -4.2. For A21U A23U C54U G58A G92U, the “polymerase ribozyme fitness (log ratio)” value was at most -4.2. In the case of A20U G62C G94A, the “polymerase ribozyme fitness (log ratio)” value is reported as -3.04. In the case of A21C A40C G94A G128U, the “polymerase ribozyme fitness (log ratio)” value is reported as -3.51. In the case of A20U G81A A89G C93U C129U, the “polymerase ribozyme fitness (log ratio)” value is reported as -3.56. In the case of A21G G58A A122U U145G, the “polymerase ribozyme fitness (log ratio)” value is reported as 0.687. With A21U G83C C95U the “polymerase ribozyme fitness (log ratio)” value was -1.58. With A21G C116G U144G the “polymerase ribozyme fitness (log ratio)” value was 1.13. For A20C A39U G42A A91U G133U, the “polymerase ribozyme fitness (log ratio)” value was at most -4.2. For A21U C96A G136A, the “polymerase ribozyme fitness (log ratio)” value was 0.203. For A21C G50A A122U, the “polymerase ribozyme fitness (log ratio)” value was -1.39. With A21C C96U A122C the “polymerase ribozyme fitness (log ratio)” value was -0.0635. For A19U U55A C63A A142U U148C, the “polymerase ribozyme fitness (log ratio)” value was at most -4.2. With A20C C87G G94C C99A A107U C108G the “polymerase ribozyme fitness (log ratio)” value was at most -4.2. With A21C C32G C43U C57A G71U C85A G88C A91C A147U the “polymerase ribozyme fitness (log ratio)” value was at most -4.2. In the case of A21G C93A C103U, the “polymerase ribozyme fitness (log ratio)” value is reported as -1.75. For A21U G136U, the “polymerase ribozyme fitness (log ratio)” value was -2.65. In the case of A20G G59C G94C, the “polymerase ribozyme fitness (log ratio)” value is reported as -0.672. In the case of A20C A22C C43U G83C, the “polymerase ribozyme fitness (log ratio)” value is reported as at most -4.2. With A20C C79A U82C A107C the “polymerase ribozyme fitness (log ratio)” value was at most -4.2. With A21U C38A G50C U55G C69A C76A G80A U90G the “polymerase ribozyme fitness (log ratio)” value was at most -4.2. With A20C A24G A40C C69A C75G C87U G88C U102C G124A G133C U135C A147C the “polymerase ribozyme fitness (log ratio)” value was at most -4.2. In the case of A19U G143U, the “polymerase ribozyme fitness (log ratio)” value is reported as -2.25. With A21C A23G C85G G141C the “polymerase ribozyme fitness (log ratio)” value was -3.89. For A20C C32G G59C C85U C95G A97G G140A U151C, the “polymerase ribozyme fitness (log ratio)” value was at most -4.2. In the case of A21U G48C G83A C118G U145A, the “polymerase ribozyme fitness (log ratio)” value is reported as -2.76. In the case of A20U A41C G50A G141A, the “polymerase ribozyme fitness (log ratio)” value is reported as -4.03. In the case of A20G U53A, the “polymerase ribozyme fitness (log ratio)” value is reported as -1.01. In the case of A20U C54A A66U U77C C116G C125A U148C, the “polymerase ribozyme fitness (log ratio)” value is reported as at most -4.2. In the case of A20C A23U A28U G65U A73U G86U, the “polymerase ribozyme fitness (log ratio)” value is reported as at most -4.2. With A21G U144A the “polymerase ribozyme fitness (log ratio)” value was 0.357. In the case of A20C C87A, the “polymerase ribozyme fitness (log ratio)” value is reported as at most -4.2. In the case of A20C C87U, the “polymerase ribozyme fitness (log ratio)” value is reported as -1.36. For A21U A23G A26G G84U G86U G136U U148G, the “polymerase ribozyme fitness (log ratio)” value was at most -4.2. In the case of A20U A113C G133C, the “polymerase ribozyme fitness (log ratio)” value is reported as at most -4.2. In the case of A21U A39U U61G G92U C108A G141A, the “polymerase ribozyme fitness (log ratio)” value is reported as at most -4.2. For A20C U55A C132A A137G G143A U146G, the “polymerase ribozyme fitness (log ratio)” value was at most -4.2. In the case of A20C A41U G59A A60U C69G G86A C103G, the “polymerase ribozyme fitness (log ratio)” value is reported as at most -4.2. In the case of A19U U144A, the “polymerase ribozyme fitness (log ratio)” value is reported as -0.138. For A21C A52G C103G, the “polymerase ribozyme fitness (log ratio)” value was -1.21. With A20U G65C C85U A106U the “polymerase ribozyme fitness (log ratio)” value was at most -4.2. With A21G A52C C75G C85U A89G C96G A150G the “polymerase ribozyme fitness (log ratio)” value was -3.89. With A20C A39C A40G G84U G88U C93A C96A the “polymerase ribozyme fitness (log ratio)” value was at most -4.2. With A20U A60C A73G the “polymerase ribozyme fitness (log ratio)” value was -2.81. For A20G A21U A23U C87A A91C C95A C118G G133U U135A, the “polymerase ribozyme fitness (log ratio)” value was at most -4.2. For A21U A30G, the “polymerase ribozyme fitness (log ratio)” value was -3.62. In the case of A20U U33C G71C G92U C96G A119U C125A, the “polymerase ribozyme fitness (log ratio)” value is reported as at most -4.2. With A21C U56G C85A C87U G92A the “polymerase ribozyme fitness (log ratio)” value was -3.51. With A21U G50C G84U the “polymerase ribozyme fitness (log ratio)” value was -4.11. With A21C C72G A73U C93U C99G G126U the “polymerase ribozyme fitness (log ratio)” value was at most -4.2. In the case of A20C A52U G68C G84A U134C, the “polymerase ribozyme fitness (log ratio)” value is reported as at most -4.2. With A20C A37C A40C G58C C95U the “polymerase ribozyme fitness (log ratio)” value was -4.12. With A19U G86U the “polymerase ribozyme fitness (log ratio)” value was -1.75. With A20G G68U G126U C132A the “polymerase ribozyme fitness (log ratio)” value was at most -4.2. In the case of A21U A23U A29C C35G G48A, the “polymerase ribozyme fitness (log ratio)” value is reported as at most -4.2. With A20G C36U A119U A120C C129U A142G the “polymerase ribozyme fitness (log ratio)” value was -4.1. With A20C U55A A110G the “polymerase ribozyme fitness (log ratio)” value was -3.9. With A21C the “polymerase ribozyme fitness (log ratio)” value was 0.199. In the case of A21U, the “polymerase ribozyme fitness (log ratio)” value is reported as 0.554. In the case of A21G, the “polymerase ribozyme fitness (log ratio)” value is reported as 0.531. With A20U G48U U61G C85G the “polymerase ribozyme fitness (log ratio)” value was at most -4.2. With A21G C132G the “polymerase ribozyme fitness (log ratio)” value was -3.9. For A20U A30G C38U G59C A60C A73U G92U, the “polymerase ribozyme fitness (log ratio)” value was at most -4.2. For A20U C54A G92U, the “polymerase ribozyme fitness (log ratio)” value was -3.48. For A20C G83C C96G, the “polymerase ribozyme fitness (log ratio)” value was -1.83. In the case of A20U A47U G70C G80C C85G C93A C108U A122G U144G, the “polymerase ribozyme fitness (log ratio)” value is reported as at most -4.2. For A21U A29C G92A C99U G117U U130G, the “polymerase ribozyme fitness (log ratio)” value was -3.76.
